Literature values as cited in article PMC7500696.
pKd: −log10 of the molar value.

Target: tropomyosin N-terminal peptide N-terminal fragment (UniProt P09493)
Experiment: CD

- pKd: 6.00
Substance: Leiomodin-2 Lmod2s1 Lmod2s1 (from UniProt Q3UHZ5)
